# Assays:
# [1] = test system: T1, Spo0A (Paenibacillus polymyxa SC2), ORF:894240d5; experiment: EMSA; conditions: EMSA: Beyotime chemiluminescent EMSA kit buffer (composition and pH not stated), 10 uL, 20 min at room temperature, native PAGE in 0.5x TBE, 70 V for 70 min …
# T1 sequence: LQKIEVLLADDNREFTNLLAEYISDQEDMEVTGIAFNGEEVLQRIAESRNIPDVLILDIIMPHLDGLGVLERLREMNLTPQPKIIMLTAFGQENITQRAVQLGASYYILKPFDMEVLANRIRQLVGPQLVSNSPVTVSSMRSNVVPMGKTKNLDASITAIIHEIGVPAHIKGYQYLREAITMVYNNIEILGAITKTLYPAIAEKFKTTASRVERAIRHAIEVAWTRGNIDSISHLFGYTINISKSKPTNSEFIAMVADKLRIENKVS
# [2] = test system: T2, AbrB3 (Paenibacillus polymyxa SC2), ORF:7049d318; experiment: EMSA; conditions: EMSA: Beyotime chemiluminescent EMSA kit buffer (composition and pH not stated), 10 uL, 20 min at room temperature, native PAGE in 0.5x TBE, 70 V for 70 min …
# T2 sequence: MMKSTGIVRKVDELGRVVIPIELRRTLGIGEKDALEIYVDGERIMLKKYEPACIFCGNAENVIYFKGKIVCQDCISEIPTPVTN
sequence,measurement,setting,value
TGTACTTCCTCCTTATTGAGTGTTATTCCATTGGGACATCTGTTTGCATTAAATAAATATTTCTTGTCGGAGTATATGATTTCGACATCGAATTATGAATTCCTTCTGTCGAAAATTATTTTTATTTATTTTTTTTATTAATTCAATTATAATTGAATTTTTATCTTGCAATTCTGAGTTATTCCCCTGCTTTTCGACAAAAAAATCTTAAGGCCA (double strand) [Pspo0A],binding,[1],binds
ATGTAATTCACAGCCCCTTAACGTATATTACTAAAAATTTCTTTGCCAACTAGAATATTGATTCTGAATATATATCGGCAATCCCCTATAATTCCTCAACACGTTTTCCACCATTAAACAAACATATTATGGGAATTACTTGTATACTTTTCAACAGTTTACTTAATATATGCGATTGCTTCTCTAAGCCTATTCTTTTTTATCATAATTATTTAGTATTATAAGGATATAAAAAAGGAGGTTATCAT (double strand) [Pabh],binding,[1],binds
same,binding,[2],binds
